Laboratory results reported in PMC4694995.

Target: programmed cell death 1 (PD1), endogenous in mouse CD8+ T cells (mouse (endogenous in OT-1 and C57BL/6 CD8+ T cells)) (UniProt Q02242)
Test: co-IP; Lag3-/- or Pdcd1-/- mouse CD8+ T cells retrovirally transduced with LAG3 or PD1 constructs (pMIG-II), sorted, rested in IL2, restimulated with IE9mp1 for 5 min or treated with pervanadate for 5 min; antibody-conjugated Dynal beads; Western blot, densitometry normalised to input

Sequence of programmed cell death 1 (PD1), endogenous in mouse CD8+ T cells (mouse (endogenous in OT-1 and C57BL/6 CD8+ T cells)) (Q02242 25-288): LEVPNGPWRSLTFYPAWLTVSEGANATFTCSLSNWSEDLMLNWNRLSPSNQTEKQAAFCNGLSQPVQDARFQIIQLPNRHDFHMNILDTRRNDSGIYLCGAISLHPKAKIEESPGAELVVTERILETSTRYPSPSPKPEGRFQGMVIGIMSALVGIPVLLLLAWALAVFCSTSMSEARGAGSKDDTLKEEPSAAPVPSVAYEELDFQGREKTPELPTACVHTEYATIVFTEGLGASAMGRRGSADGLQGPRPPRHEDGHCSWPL
Sequence of Src-homology-2 domain-containing phosphatase SHP1, endogenous in mouse CD8+ T cells, P29351 1-595 (enzyme; other documents disagree on this pair) (P29351 whole entry): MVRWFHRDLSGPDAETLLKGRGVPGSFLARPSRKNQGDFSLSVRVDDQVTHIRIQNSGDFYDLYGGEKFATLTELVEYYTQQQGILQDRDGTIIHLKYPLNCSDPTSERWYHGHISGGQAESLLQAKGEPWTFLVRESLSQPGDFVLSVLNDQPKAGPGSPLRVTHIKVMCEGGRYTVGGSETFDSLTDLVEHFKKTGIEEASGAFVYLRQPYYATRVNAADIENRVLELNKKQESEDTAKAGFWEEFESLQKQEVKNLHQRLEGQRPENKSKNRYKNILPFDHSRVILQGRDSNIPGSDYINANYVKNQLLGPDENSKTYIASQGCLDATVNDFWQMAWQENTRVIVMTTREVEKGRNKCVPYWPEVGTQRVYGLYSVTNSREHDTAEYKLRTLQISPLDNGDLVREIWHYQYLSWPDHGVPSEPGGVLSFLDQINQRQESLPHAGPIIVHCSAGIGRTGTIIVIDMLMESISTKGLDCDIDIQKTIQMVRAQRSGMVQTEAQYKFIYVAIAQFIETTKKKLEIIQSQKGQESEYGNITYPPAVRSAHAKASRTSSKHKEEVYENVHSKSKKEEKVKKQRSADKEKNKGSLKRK

| Substance | amount pulled down by anti-PD1 antibody, against pLAG3 [% lower] | amount pulled down by anti-PD1 antibody in cells with pΔCY, against cells with pLAG3 [% less] |
| --- | --- | --- |
| LAG3 lacking the cytoplasmic domain, expressed from pMIG-LAG3ΔCY in Lag3-/- CD8+ T cells (domain or fragment) | 30 | – |
| Src-homology-2 domain-containing phosphatase SHP1, endogenous in mouse CD8+ T cells, P29351 1-595 (enzyme; other documents disagree on this pair) | – | 20 |
